Results reported in patent US6740638.

Biological target: rat MHC class II molecules on Lewis rat splenic adherent cells (antigen presenting cells) (rat)
Experiment: competition with 10 µM biotin-labeled MBP (87-99) for binding to OX-6/OX-17 positive rat splenic adherent cells, flow cytometry

IC50: 21 µM
Substance: MBP (87-99) peptide analogue with alanine at position 91 (91K>A)
